{"source": "patent US10677782B2", "about": "“Methods of determining interferon having direct inhibitory effects on tumors and uses thereof” (SUPERLAB FAR EAST LIMITED, priority 2013, dated 2020)", "molecules": {"B1": {"name": "rSIFN-co: Recombinant super-compound interferon; amino acid sequence SEQ ID NO: 1 (same as interferon alfacon-1), encoded by SEQ ID NO: 2, novel tertiary structure (protein)", "chain": "MCDLPQTHSLGNRRALILLAQMRRISPFSCLKDRHDFGFPQEEFDGNQFQKAQAISVLHEMIQQTFNLFSTKDSSAAWDESLLEKFYTELYQQLNDLEACVIQEVGVEETPLMNVDSILAVKKYFQRITLYLTEKKYSPCAWEVVRAEIMRSFSLSTNLQERLRRKE", "modifications": "Amino acid sequence of recombinant interferon"}}, "key": {"[1]": {"test_system": "Human Colon Cancer HT-29 Xenografts", "assay": "Human colon cancer HT-29 xenografts in nude mice (Example 3)", "assay_type": "in vivo", "details": "for TV (mm^3, mean ± SD) (D0): day 0, start of treatment; for TV (mm^3, mean ± SD) (D28): day 28", "description": "Before commencement of this study, the xenografts were passaged twice in nude mice. Under sterile conditions, well-grown tumors were cut into 1.5 mm^3 fragments and one such fragment was injected by trocar needle into the right flank of each study animal. […] Individual tumor size (length and width) was measured twice per week with microcalipers. Tumor volume (V) was calculated using the formula: V=(length×width^2)/2. Individual relative tumor volume (RTV) was calculated using the formula: RTV=Vt/V0, where Vt is the tumor volume on the day of measurement and V0 is the tumor volume on the day of first treatment. Therapeutic effect of the test article or control article was expressed in terms of TIC (%), using the formula: TIC (%) (mean RTV of the treated group/mean RTV of the control group)×100%; and in terms of % Inhibition, using the formula: % Inhibition=100%−T/C %.\nThen, 1.5 mm^3 fragments were prepared for s.c. implantation into the test animals."}, "[2]": {"assay": "Tolerability and body weight of tumor-bearing mice, Example 3", "assay_type": "in vivo", "details": "0.05-0.15 mg/mouse i.t. every other day, 28 days", "description": "Animals were assigned to treatment groups randomly. Initially, all animals were placed in one large animal cage. For assignment to the study, they were later separately housed, with 6 animals per cage per treatment group. Groups 1 and 2 are Control groups in which the animals were each administered the vehicle every other day after the first treatment. […] The animals in Groups 4, 5 and 6 were each given rSIFN-co every other day after the first treatment at 0.15 mg/mouse (Group 4) or 0.10 mg/mouse (Group 5) or 0.05 mg/mouse (Group 6), respectively. Tumor growth was monitored by measuring the length and width of each tumor twice a week during the course of the study. Each animal was also weighed twice a week during the course of the study.\nThis study was conducted as in Example 1, except as specifically indicated otherwise. Human colon cancer xenografts were first established and prepared in a similar manner as in Example 1, by inoculating 5×10^6 HT-29 cells subcutaneously into nude mice and passaging the well-grown xenografts twice in nude mice. Then, 1.5 mm^3 fragments were prepared for s.c. implantation into the test animals. The body weight of the animals averaged 20±2 g at dose initiation In contrast to Example 1, the animals used in this study were all female. […]"}, "[3]": {"test_system": "beta-catenin protein level in A549 cells", "assay": "Beta-catenin protein level by Western Blot", "assay_type": "cell-based, human", "details": "10 mcg/ml", "description": "(§1) Cancer cells, A549 and Sw480, were cultured to about 85% confluency and put into 6 well plates. The cells were treated with either 10 mcg/ml IFNα-2b or rSIFN-co or left untreated as control (Mock) for 24 hr, 48 hr, or 72 hr, respectively. After treatment, the cells were harvested for Western Blot to detect the beta-catenin protein level, using its specific antibody, with GAPDH as endogenous loading control. The experiment was conducted in triplicate.\n(§2) To determine the expression of various proteins, cells were harvested from the plates and total cellular protein were extracted using extraction reagents (Cat #: P0013) according to the manufacturer's protocol (Beyotime, China). The total protein concentration was determined by the Lowry Protein Assay kit (Bio-Rad, USA). […] The membranes were blocked with 5% skimmed milk, bovine serum albumin, 10 mmol/L Tris-HCl at pH 8.0, 150 mmol/L NaCl, and 0.05% Tween 20 overnight at 4° C. The blocked membranes were then incubated with primary antibodies (1:1000 dilutions), followed by secondary HRP-conjugated antibodies. Blots were visualized using Luminescence/Fluorescence Imaging LAS4000 System (GE Healthcare Life Sciences, USA) with super signal west pico chemiluminescent substrate kit (Thermo scientific, USA).\n(§3) For this determination, the primary antibodies used were mouse monoclonal anti-beta-catenin antibodies (1:1000; Santa Cruz Technology, Santa Cruz, Calif.) and mouse monoclonal anti-GAPDH antibodies (1:2000) (Kangwei Biotechnology, China). Anti-mouse HRP-conjugated secondary antibodies (Santa Cruz Technology, Santa Cruz, Calif.) were used at concentrations of 1:2000."}, "[4]": {"test_system": "beta-catenin protein level in SW480 cells", "assay": "Beta-catenin protein level by Western Blot", "assay_type": "cell-based, human", "details": "10 mcg/ml, 72 hours", "description": "as §1, §2, §3"}, "[5]": {"test_system": "procaspase-3, cleaved caspase-3, procaspase-8, cleaved caspase-8, PARP in A549 cells", "assay": "Apoptosis-related molecular markers by Western Blot", "assay_type": "cell-based, human", "details": "24 hr or 48 hr; interferons at 10 mcg/ml", "from_the_text": "(§4) Thereafter, apoptosis-related molecular markers were monitored by Western Blot. The primary antibodies used were mouse monoclonal anti-beta-tubulin (1:2000, Cat #: CW0098A) and mouse monoclonal anti-GAPDH (1:2000, Cat #: CW0100A) (Kangwei Biotechnology, China); mouse monoclonal anti-PARP (1:1000, Cat #: se-2007, Santa Cruz Biotechnology, Inc.); rabbit monoclonal anti-procaspase 3 (1:1000, Cat #: 9665), and rabbit polyclonal anti-cleaved caspase 3 (1:1000, Cat #: 9661) (Cell Signaling Technology, USA); goat polyclonal anti-procaspase 8 (1:1000, Cat #: sc-6136, Santa Cruz Biotechnology, Inc); rabbit monoclonal anti-cleaved caspase 8 (1:1000, Cat #: 9496) (Cell Signaling Technology, USA)."}, "[6]": {"test_system": "procaspase-3, cleaved caspase-3, procaspase-8, cleaved caspase-8, PARP in SW620 cells", "assay": "Apoptosis-related molecular markers by Western Blot", "assay_type": "cell-based, human", "details": "24 hr or 48 hr; interferons at 10 mcg/ml", "from_the_text": "as §4"}, "[7]": {"details": "0.05 mg/mouse i.t. every other day"}, "[8]": {"details": "0.10 mg/mouse i.t. every other day"}, "[9]": {"details": "0.15 mg/mouse i.t. every other day"}}, "data": [{"molecule": "B1", "values": [{"measurement": "TV (mm^3, mean ± SD) (D0)", "setting": "[1]; [7]", "value": "130 ± 26", "unit": "mm^3"}, {"measurement": "TV (mm^3, mean ± SD) (D28)", "setting": "[1]; [7]", "value": "416 ± 166", "unit": "mm^3"}, {"measurement": "TV (mm^3, mean ± SD) (D0)", "setting": "[1]; [8]", "value": "128 ± 39", "unit": "mm^3"}, {"measurement": "TV (mm^3, mean ± SD) (D28)", "setting": "[1]; [8]", "value": "541 ± 196", "unit": "mm^3"}, {"measurement": "TV (mm^3, mean ± SD) (D0)", "setting": "[1]; [9]", "value": "131 ± 36", "unit": "mm^3"}, {"measurement": "TV (mm^3, mean ± SD) (D28)", "setting": "[1]; [9]", "value": "570 ± 144", "unit": "mm^3"}, {"measurement": "tolerability: signs of drug toxicity and changes in weight", "setting": "[2]", "value": "no signs of drug toxicity and minimal changes in weight"}, {"measurement": "beta-catenin protein level", "setting": "[3]; 48 hr", "value": "dramatically decreased"}, {"measurement": "beta-catenin protein level", "setting": "[3]; 72 hr", "value": "Further decrease"}, {"measurement": "beta-catenin protein level", "setting": "[4]", "value": "Decrease in beta-catenin protein level in the SW480 cells was obvious"}, {"measurement": "level of apoptosis-related molecular markers (procaspase-3, procaspase-8, PARP, cleaved caspase-3, cleaved caspase-8)", "setting": "[5]", "value": "neither of the interferons, IFN alpha-2b nor rSIFN-co, caused any reduction in the level of procaspase-3 or procaspase-8 or PARP, or induced any enhancement in the level of cleaved caspase-3 or cleaved caspase-8"}, {"measurement": "level of apoptosis-related molecular markers (procaspase-3, procaspase-8, PARP, cleaved caspase-3, cleaved caspase-8)", "setting": "[6]", "value": "neither of the interferons, IFN alpha-2b nor rSIFN-co, caused any reduction in the level of procaspase-3 or procaspase-8 or PARP, or induced any enhancement in the level of cleaved caspase-3 or cleaved caspase-8"}]}]}
